# Assay results from patent US20040091465A1, “Therapeutic antiangiogenic compositions and methods” (priority 2002, published 2004).
# What was measured:
# [1] = system: bovine capillary endothelial cells; experiment: Bovine capillary endothelial (BCE) cell proliferation assay, 72 hours, bFGF; type: cell-based
# Description: To further characterize the 20 kDa inhibitor, we tested it on several cell lines of endothelial and non-endothelial origin. For the BCE assay, bovine capillary endothelial cells were obtained and grown as previously described (Folkman et al., 1979). For the proliferation assay, cells were washed with PBS and dispersed in a 0.05% solution of trypsin. A cell suspension (25,000 cells/ml) was made with DMEM+10% BCS+1% GPS, plated onto gelatinized 24-well culture plates ([…]), and incubated (37° C., 10% CO2) for 24 hours. The media was replaced with 0.25 ml of DMEM+5% BCS+1% GPS and the test sample applied. After 20 minutes of incubation, media and bFGF were added to obtain a final volume of 0.5 ml of DMEM+5% BCS+1% GPS+1 ng/ml bFGF. After 72 hours, cells were dispersed in trypsin, resuspended in Hematall (Fisher Scientific, Pittsburgh, Pa.), and counted by Coulter counter.
# [2] = system: Lewis Lung carcinoma cells; experiment: Non-endothelial cell proliferation assay, LLC; type: cell-based; settings: 72 hours
# Description: (§1) Bovine aortic smooth muscle (SMC), bovine retinal pigment epithelial (RPE), mink lung epithelial (MLE), Lewis lung carcinoma (LLC), and EOMA cells and 3T3 fibroblasts were maintained in a 10% CO2 and 37° C. incubator. For the proliferation assays, cells were washed with PBS and were dispersed in a 0.05% solution of trypsin. Optimal conditions for the cell proliferation assays were established for each different cell type. Fetal calf serum (FCS) was used for the RPE, MLE, and LLC cells and BCS was used for the other cell types. A cell suspension (20,000 cells/ml for SMC, RPE, MLE; 15,000 cells/ml for 3T3; 10,000 cells/ml for LLC, EOMA) was made with DMEM+10% bovine serum+1% GPS, plated onto 24 well culture plates (0.5 ml/well), and incubated (37° C., 10% C02) for 24 hours. The media was replaced with 0.5 ml of DMEM+5% bovine serum+1% GPS and the test sample applied. After 72 hours, cells were dispersed in trypsin, resuspended in Hematall (Fisher Scientific, Pittsburgh, Pa.), and counted by Coulter counter.
# [3] = system: Bovine aortic smooth muscle cells; experiment: Non-endothelial cell proliferation assay, SMC; type: cell-based; settings: 72 hours
# Description: as §1
# [4] = system: cells of non-endothelial origin; experiment: Non-endothelial cell proliferation assays, stated for all lines together; type: cell-based; settings: doses 1 log unit higher than those used to inhibit capillary endothelial cell proliferation
# Description: as §1
# [5] = system: Bovine retinal pigment epithelial cells; experiment: Non-endothelial cell proliferation assay, RPE; type: cell-based; settings: 72 hours
# Description: as §1
# [6] = system: Mink lung epithelial cells; experiment: Non-endothelial cell proliferation assay, MLE; type: cell-based; settings: 72 hours
# Description: as §1
# [7] = system: 3T3 fibroblasts; experiment: Non-endothelial cell proliferation assay, 3T3; type: cell-based; settings: 72 hours
# Description: as §1
# [8] = system: EOMA hemangioendothelioma cells; experiment: Non-endothelial cell proliferation assay, EOMA; type: cell-based, murine; settings: 72 hours
# Description: as §1
# [9] = system: Lewis lung carcinoma primary tumors; experiment: Systemic therapy of Lewis lung carcinoma primary tumors; type: in vivo, mice; settings: 20 mg/kg/day, FIG. 11
Molecule,Dose at which inhibition of endothelial cell proliferation was first observed ([1]; 72 hour BCE assay) [ng/mL],Dose giving maximal inhibition of endothelial cell proliferation ([1]; 72 hour BCE assay) [ng/mL],"Effect on bovine capillary endothelial cell proliferation ([1]; 72 hour proliferation assay, 1 ng/ml bFGF)",Effect on Lewis lung carcinoma cell proliferation [2],Effect on Lewis lung carcinoma cell proliferation ([2]; listed as ENDOSTATIN),Effect on bovine aortic smooth muscle cell proliferation [3],Effect on bovine aortic smooth muscle cell proliferation ([3]; listed as ENDOSTATIN),Inhibition of proliferation of cells of non-endothelial origin [4],Effect on bovine retinal pigment epithelial cell proliferation [5],Effect on mink lung epithelial cell proliferation [6],Effect on 3T3 fibroblast proliferation [7],Effect on 3T3 fibroblast proliferation ([7]; listed as ENDOSTATIN),Effect on EOMA hemangioendothelioma cell proliferation [8],Effect on EOMA hemangioendothelioma cell proliferation ([8]; listed as ENDOSTATIN),Inhibition of Lewis lung carcinoma tumor growth by human endostatin [9]
"endostatin: 20 kDa inhibitor of endothelial cell proliferation purified from EOMA conditioned media; C-terminal fragment of collagen XVIII NC1 domain (protein, listed as Homo sapiens) HSHRDFQPVLHLVALNSPLSGGMRGIRGADFQCFQQARAVGLAGTFRAFLSSRLQDLYSIVRRADRAAVPIVNLKDELLFPSWEALFSGSEGPLKPGARIFSFDGKDVLRHPTWPQKSVWHGSDPNGRRLTESYCETWRTEAPSATGQASSLLGGRLLGQSAASCHHAYIVLCIENSFMTASK",100,≥ 600,INHIBITED,no effect,NON-INHIBITED,no effect,NON-INHIBITED,No significant inhibition,NON-INHIBITED,NON-INHIBITED,no effect,NON-INHIBITED,no effect,NON-INHIBITED,–
"endostatin derived from human: recombinant endostatin from the human sequence, produced in E. coli (protein, listed as Homo sapiens) HSHRDFQPVLHLVALNSPLSGGMRGIRGADFQCFQQARAVGLAGTFRAFLSSRLQDLYSIVRRADRAAVPIVNLKDELLFPSWEALFSGSEGPLKPGARIFSFDGKDVLRHPTWPQKSVWHGSDPNGRRLTESYCETWRTEAPSATGQASSLLGGRLLGQSAASCHHAYIVLCIENSFMTASK",–,–,–,–,–,–,–,–,–,–,–,–,–,–,effectiveness
